The results in this text go back to the Human Domainome abundance scans (Beltran et al. 2025).

The labels stand for the following.
B1: Zinc finger MYM-type protein 3, residues 589 to 668; numbered along this chain, Q14202 (parent)
chain: LSCHYCHSLFSGKPEVLDWQDQVFQFCCRDCCEDFKRLRGVVSQCEHCRQEKLLHEKLRFSGVEKSFCSEGCVLLYKQDF

± gives the uncertainty stated by the source.

In this series the parent is B1. Nature of the series: abundance fitness (aPCA) (normalised: wild type 0, dead -1); higher = more abundant; growth selection in yeast, the domain comes from the species named. Conditions: Homo sapiens.
As for LSCHYCHSLFSGKPEVLDWQDQVFQFCCRDCCEDFKRLRGVVSQCEHCRQEKLLHEKLRCSGVEKSFCSEGCVLLYKQDF [F60C], the abundance fitness is -0.503 ± 0.29.

Regarding LSCHYCHSLFSGKPEVLDWQDQVFQFCCRDCCEDFKRLRGVVSQCEHCRQEKLLHEKLRFSGVEKSFCSEGCVNLYKQDF [L74N], the abundance fitness was 0.453 ± 0.22.

LSCHYCHSLFSGKPEVLDWQDQVFQFCDRDCCEDFKRLRGVVSQCEHCRQEKLLHEKLRFSGVEKSFCSEGCVLLYKQDF [C28D]: the abundance fitness is 0.041 ± 0.062.

Turning to LSCHYCHSLFSGKPEVLDWQDQVFQFCCRDCCEDFKRLRGVVSQCEHCRQEKLLHEKLRFSGAEKSFCSEGCVLLYKQDF [V63A], the abundance fitness is -0.109 ± 0.13.

As for LSCHYCHSLFSGKPEVLDWQDQVFQFCCRDCDEDFKRLRGVVSQCEHCRQEKLLHEKLRFSGVEKSFCSEGCVLLYKQDF [C32D], the abundance fitness is -0.521 ± 0.11.

Turning to LSCHYCHSLFSGKPCVLDWQDQVFQFCCRDCCEDFKRLRGVVSQCEHCRQEKLLHEKLRFSGVEKSFCSEGCVLLYKQDF [E15C], the abundance fitness worked out at 0.008 ± 0.052.

In the case of LSCHYCHSLFSGKPEVLDWQDQVFQFCCRDCCEDFKRLRGVVSQCEHCRQEKLLHEKLRFSGVEKSFCSEGCVLLYKSDF [Q78S], the abundance fitness was found to be 0.069 ± 0.15.

With LSCHYCHSLFSGKPEVLDWQDQVFDFCCRDCCEDFKRLRGVVSQCEHCRQEKLLHEKLRFSGVEKSFCSEGCVLLYKQDF [Q25D], the abundance fitness was found to be 0.085 ± 0.056.

Take LSCHYCHSLFSGKPEVLDWQDQVFQFCCRDCCEDFKRLRGVVSQCEHCRQEKLLHEKLRFSGVEKSFCSEGCVLLYPQDF [K77P]: the abundance fitness was -0.71 ± 0.22.

With LMCHYCHSLFSGKPEVLDWQDQVFQFCCRDCCEDFKRLRGVVSQCEHCRQEKLLHEKLRFSGVEKSFCSEGCVLLYKQDF [S2M], the abundance fitness amounted to 0.243 ± 0.051.

Consider LSCHYCHSLFSGKPEVLDWQDNVFQFCCRDCCEDFKRLRGVVSQCEHCRQEKLLHEKLRFSGVEKSFCSEGCVLLYKQDF [Q22N], for which the abundance fitness worked out at 0.255 ± 0.059.

Take LSCHYCHSLFSGKFEVLDWQDQVFQFCCRDCCEDFKRLRGVVSQCEHCRQEKLLHEKLRFSGVEKSFCSEGCVLLYKQDF [P14F]: the abundance fitness is -0.371 ± 0.21.

As for LSCHYWHSLFSGKPEVLDWQDQVFQFCCRDCCEDFKRLRGVVSQCEHCRQEKLLHEKLRFSGVEKSFCSEGCVLLYKQDF [C6W], the abundance fitness was -0.978 ± 0.12.

For the variant LSCHYCHSLFSGKPEVLDWQDQVFQFCCRDCCEDFKRTRGVVSQCEHCRQEKLLHEKLRFSGVEKSFCSEGCVLLYKQDF [L38T], the abundance fitness is 0.264 ± 0.075.

Consider LSCHYCHSLFSGKPEVLDWQDQVFQFCCRDCCEDFKRLRGVVSQCEHCRQEKLLHEKLRFSGVEKSFCSEGCVLQYKQDF [L75Q], for which the abundance fitness was 0.573 ± 0.18.

Consider LSCHYCHSLFSGKPEVLDWQKQVFQFCCRDCCEDFKRLRGVVSQCEHCRQEKLLHEKLRFSGVEKSFCSEGCVLLYKQDF [D21K], for which the abundance fitness came out at 0.086 ± 0.051.

As to LSCHYCHSLNSGKPEVLDWQDQVFQFCCRDCCEDFKRLRGVVSQCEHCRQEKLLHEKLRFSGVEKSFCSEGCVLLYKQDF [F10N], the abundance fitness is -0.373 ± 0.084.

For LSCHYCHSLFSGKPEVLDWEDQVFQFCCRDCCEDFKRLRGVVSQCEHCRQEKLLHEKLRFSGVEKSFCSEGCVLLYKQDF [Q20E], the abundance fitness was 0.492 ± 0.05.

In the case of LSCHYCHSLFSGDPEVLDWQDQVFQFCCRDCCEDFKRLRGVVSQCEHCRQEKLLHEKLRFSGVEKSFCSEGCVLLYKQDF [K13D], the abundance fitness came out at 0.019 ± 0.068.

In the case of LSCHYCHSLFSGKPEVLDWQDQTFQFCCRDCCEDFKRLRGVVSQCEHCRQEKLLHEKLRFSGVEKSFCSEGCVLLYKQDF [V23T], the abundance fitness was found to be 0.175 ± 0.047.

With LSCHYCHSLFSGKPEVLDWQDQVFQFCCRDCCEDFKRLRGVVSQCEHCRQEKLLHEKLRFSGVEKSFCSEGCVLLYKQGF [D79G], the abundance fitness was 0.187 ± 0.074.

Consider LSCHLCHSLFSGKPEVLDWQDQVFQFCCRDCCEDFKRLRGVVSQCEHCRQEKLLHEKLRFSGVEKSFCSEGCVLLYKQDF [Y5L], for which the abundance fitness is 0.082 ± 0.039.

Take LSCHMCHSLFSGKPEVLDWQDQVFQFCCRDCCEDFKRLRGVVSQCEHCRQEKLLHEKLRFSGVEKSFCSEGCVLLYKQDF [Y5M]: the abundance fitness is 0.313 ± 0.047.

With LSCHYCHSLFSGKPEVLDWQDQVFQFCCRDCCEDFKRLRGVVSQCGHCRQEKLLHEKLRFSGVEKSFCSEGCVLLYKQDF [E46G], the abundance fitness was 0.085 ± 0.093.

As to LSCHYCHSLFSGKPEVLDWQDQVFQFICRDCCEDFKRLRGVVSQCEHCRQEKLLHEKLRFSGVEKSFCSEGCVLLYKQDF [C27I], the abundance fitness is -0.752 ± 0.21.

For LSCHYCHSLFSGKPEVLDWQDQVFQFRCRDCCEDFKRLRGVVSQCEHCRQEKLLHEKLRFSGVEKSFCSEGCVLLYKQDF [C27R], the abundance fitness is -0.756 ± 0.055.

Consider LSCHYCHSLFSGKPEVLDWQDQVFQFQCRDCCEDFKRLRGVVSQCEHCRQEKLLHEKLRFSGVEKSFCSEGCVLLYKQDF [C27Q], for which the abundance fitness was -0.653 ± 0.075.

On to LSCHYCHSLFSGKPEVLDWQDQVFQWCCRDCCEDFKRLRGVVSQCEHCRQEKLLHEKLRFSGVEKSFCSEGCVLLYKQDF [F26W], for which the abundance fitness is -0.522 ± 0.075.

As for LSCHYCHSLFSGKPEVLDWQDQVFQFCCRDCCEDFKRLRGVVSICEHCRQEKLLHEKLRFSGVEKSFCSEGCVLLYKQDF [Q44I], the abundance fitness came out at 0.547 ± 0.37.

Consider LSCHYCHSLFSGKPEVLDWQDQVFQFCCRDCCEDFKRLRGVVSQGEHCRQEKLLHEKLRFSGVEKSFCSEGCVLLYKQDF [C45G], for which the abundance fitness is -0.603 ± 0.095.

Take LSCHYCHSLFSGKPEVCDWQDQVFQFCCRDCCEDFKRLRGVVSQCEHCRQEKLLHEKLRFSGVEKSFCSEGCVLLYKQDF [L17C]: the abundance fitness is -0.077 ± 0.071.

In the case of LSCHYCHSLFSGKPEVLDWQDQVFQFCCRDCCEDFARLRGVVSQCEHCRQEKLLHEKLRFSGVEKSFCSEGCVLLYKQDF [K36A], the abundance fitness was -0.077 ± 0.042.

LSCHYCHSLFSGKPEVLDWQDQVFQFCCRDCCEDFKRLRGVVSQCEHCRQEKLLHEKLRFSGVEKSKCSEGCVLLYKQDF [F67K]: the abundance fitness was -0.391 ± 0.16.

LSCHYCHSLFSGKPEVLDWQDQVFQFCCRDCCEDFKRLRGVVSQCEHCRQEKLLHEKLRFSGVEKSSCSEGCVLLYKQDF [F67S]: the abundance fitness is -0.297 ± 0.18.

On to LSCHYCHSLFSGKPEVLDWQDQVFQFCCRDCCEDFKRLRGVVSQCEHCRQEKLLHEKLRFSGVEKSFCSETCVLLYKQDF [G71T], for which the abundance fitness came to 0.414 ± 0.11.
